Reference: patent US8642284

Target: histone H2B (calf thymus), P62808

| Protein | ADP-ribosyl-transferase activity of the immune complex on Protein A-Sepharose beads | mono-ADP-ribosylation activity relative to wild type (Phosphorimaging) |
| --- | --- | --- |
| endogenous mSir2α protein of mouse NIH3T3 cells (protein) ADEVALALQAAGSPSAAAAMEAASQPADEPLRKRPRRDGPGLGRSPGEPSAAVAPAAAGCEAASAAAPAALWREAAGAAASAEREAPATAVAGDGDNGSGLRREPRAADDFDDDEGEEEDEAAAAAAAAAIGYRDNLLLTDGLLTNGFHSCESDDDDRTSHASSSDWTPRPRIGPYTFVQQHLMIGTDPRTILKDLLPETIPPPELDDMTLWQIVINILSEPPKRKKRKDINTIEDAVKLLQECKKIIVLTGAGVSVSCGIPDFRSRDGIYARLAVDFPDLPDPQAMFDIEYFRKDPRPFFKFAKEIYPGQFQPSLCHKFIALSDKEGKLLRNYTQNIDTLEQVAGIQRILQCHGSFATASCLICKYKVDCEAVRGDIFNQVVPRCPRCPADEPLAIMKPEIVFFGENLPEQFHRAMKYDKDEVDLLIVIGSSLKVRPVALIPSSIPHEVPQILINREPLPHLHFDVELLGDCDVIINELCHRLGGEYAKLCCNPVKLSEITEKPPRPQKELVHLSELPPTPLHISEDSSSPERTVPQDSSVIATLVDQATNNNVNDLEVSESSCVEEKPQEVQTSRNVENINVENPDFKAVGSSTADKNERTSVAETVRKCWPNRLAKEQISKRLEGNQYLFVPPNRYIFHGAEVYSDSEDDVLSSSSCGSNSDSGTCQSPSLEEPLEDESEIEEFYNGLEDDTERPECAGGSGFGADGGDQEVVNEAIATRQELTDVNYPSDKS | ADP-ribosyl-transferase activity could be detected for the endogenous mSir2α immunoprecipitated from NIH3T3 whole cell extracts | – |
| recombinant mSir2α mutant G253A (protein) MADEVALALQAAGSPSAAAAMEAASQPADEPLRKRPRRDGPGLGRSPGEPSAAVAPAAAGCEAASAAAPAALWREAAGAAASAEREAPATAVAGDGDNGSGLRREPRAADDFDDDEGEEEDEAAAAAAAAAIGYRDNLLLTDGLLTNGFHSCESDDDDRTSHASSSDWTPRPRIGPYTFVQQHLMIGTDPRTILKDLLPETIPPPELDDMTLWQIVINILSEPPKRKKRKDINTIEDAVKLLQECKKIIVLTAAGVSVSCGIPDFRSRDGIYARLAVDFPDLPDPQAMFDIEYFRKDPRPFFKFAKEIYPGQFQPSLCHKFIALSDKEGKLLRNYTQNIDTLEQVAGIQRILQCHGSFATASCLICKYKVDCEAVRGDIFNQVVPRCPRCPADEPLAIMKPEIVFFGENLPEQFHRAMKYDKDEVDLLIVIGSSLKVRPVALIPSSIPHEVPQILINREPLPHLHFDVELLGDCDVIINELCHRLGGEYAKLCCNPVKLSEITEKPPRPQKELVHLSELPPTPLHISEDSSSPERTVPQDSSVIATLVDQATNNNVNDLEVSESSCVEEKPQEVQTSRNVENINVENPDFKAVGSSTADKNERTSVAETVRKCWPNRLAKEQISKRLEGNQYLFVPPNRYIFHGAEVYSDSEDDVLSSSSCGSNSDSGTCQSPSLEEPLEDESEIEEFYNGLEDDTERPECAGGSGFGADGGDQEVVNEAIATRQELTDVNYPSDKS | – | completely abolished the activity |
| recombinant mSir2α mutant G270A (protein) MADEVALALQAAGSPSAAAAMEAASQPADEPLRKRPRRDGPGLGRSPGEPSAAVAPAAAGCEAASAAAPAALWREAAGAAASAEREAPATAVAGDGDNGSGLRREPRAADDFDDDEGEEEDEAAAAAAAAAIGYRDNLLLTDGLLTNGFHSCESDDDDRTSHASSSDWTPRPRIGPYTFVQQHLMIGTDPRTILKDLLPETIPPPELDDMTLWQIVINILSEPPKRKKRKDINTIEDAVKLLQECKKIIVLTGAGVSVSCGIPDFRSRDAIYARLAVDFPDLPDPQAMFDIEYFRKDPRPFFKFAKEIYPGQFQPSLCHKFIALSDKEGKLLRNYTQNIDTLEQVAGIQRILQCHGSFATASCLICKYKVDCEAVRGDIFNQVVPRCPRCPADEPLAIMKPEIVFFGENLPEQFHRAMKYDKDEVDLLIVIGSSLKVRPVALIPSSIPHEVPQILINREPLPHLHFDVELLGDCDVIINELCHRLGGEYAKLCCNPVKLSEITEKPPRPQKELVHLSELPPTPLHISEDSSSPERTVPQDSSVIATLVDQATNNNVNDLEVSESSCVEEKPQEVQTSRNVENINVENPDFKAVGSSTADKNERTSVAETVRKCWPNRLAKEQISKRLEGNQYLFVPPNRYIFHGAEVYSDSEDDVLSSSSCGSNSDSGTCQSPSLEEPLEDESEIEEFYNGLEDDTERPECAGGSGFGADGGDQEVVNEAIATRQELTDVNYPSDKS | – | completely abolished the activity |
| recombinant mSir2α mutant T336A (protein) MADEVALALQAAGSPSAAAAMEAASQPADEPLRKRPRRDGPGLGRSPGEPSAAVAPAAAGCEAASAAAPAALWREAAGAAASAEREAPATAVAGDGDNGSGLRREPRAADDFDDDEGEEEDEAAAAAAAAAIGYRDNLLLTDGLLTNGFHSCESDDDDRTSHASSSDWTPRPRIGPYTFVQQHLMIGTDPRTILKDLLPETIPPPELDDMTLWQIVINILSEPPKRKKRKDINTIEDAVKLLQECKKIIVLTGAGVSVSCGIPDFRSRDGIYARLAVDFPDLPDPQAMFDIEYFRKDPRPFFKFAKEIYPGQFQPSLCHKFIALSDKEGKLLRNYAQNIDTLEQVAGIQRILQCHGSFATASCLICKYKVDCEAVRGDIFNQVVPRCPRCPADEPLAIMKPEIVFFGENLPEQFHRAMKYDKDEVDLLIVIGSSLKVRPVALIPSSIPHEVPQILINREPLPHLHFDVELLGDCDVIINELCHRLGGEYAKLCCNPVKLSEITEKPPRPQKELVHLSELPPTPLHISEDSSSPERTVPQDSSVIATLVDQATNNNVNDLEVSESSCVEEKPQEVQTSRNVENINVENPDFKAVGSSTADKNERTSVAETVRKCWPNRLAKEQISKRLEGNQYLFVPPNRYIFHGAEVYSDSEDDVLSSSSCGSNSDSGTCQSPSLEEPLEDESEIEEFYNGLEDDTERPECAGGSGFGADGGDQEVVNEAIATRQELTDVNYPSDKS | – | completely abolished the activity |
| recombinant mSir2α mutant G255A (protein) MADEVALALQAAGSPSAAAAMEAASQPADEPLRKRPRRDGPGLGRSPGEPSAAVAPAAAGCEAASAAAPAALWREAAGAAASAEREAPATAVAGDGDNGSGLRREPRAADDFDDDEGEEEDEAAAAAAAAAIGYRDNLLLTDGLLTNGFHSCESDDDDRTSHASSSDWTPRPRIGPYTFVQQHLMIGTDPRTILKDLLPETIPPPELDDMTLWQIVINILSEPPKRKKRKDINTIEDAVKLLQECKKIIVLTGAAVSVSCGIPDFRSRDGIYARLAVDFPDLPDPQAMFDIEYFRKDPRPFFKFAKEIYPGQFQPSLCHKFIALSDKEGKLLRNYTQNIDTLEQVAGIQRILQCHGSFATASCLICKYKVDCEAVRGDIFNQVVPRCPRCPADEPLAIMKPEIVFFGENLPEQFHRAMKYDKDEVDLLIVIGSSLKVRPVALIPSSIPHEVPQILINREPLPHLHFDVELLGDCDVIINELCHRLGGEYAKLCCNPVKLSEITEKPPRPQKELVHLSELPPTPLHISEDSSSPERTVPQDSSVIATLVDQATNNNVNDLEVSESSCVEEKPQEVQTSRNVENINVENPDFKAVGSSTADKNERTSVAETVRKCWPNRLAKEQISKRLEGNQYLFVPPNRYIFHGAEVYSDSEDDVLSSSSCGSNSDSGTCQSPSLEEPLEDESEIEEFYNGLEDDTERPECAGGSGFGADGGDQEVVNEAIATRQELTDVNYPSDKS | – | completely abolished the activity |
| recombinant mSir2α mutant F265A (protein) MADEVALALQAAGSPSAAAAMEAASQPADEPLRKRPRRDGPGLGRSPGEPSAAVAPAAAGCEAASAAAPAALWREAAGAAASAEREAPATAVAGDGDNGSGLRREPRAADDFDDDEGEEEDEAAAAAAAAAIGYRDNLLLTDGLLTNGFHSCESDDDDRTSHASSSDWTPRPRIGPYTFVQQHLMIGTDPRTILKDLLPETIPPPELDDMTLWQIVINILSEPPKRKKRKDINTIEDAVKLLQECKKIIVLTGAGVSVSCGIPDARSRDGIYARLAVDFPDLPDPQAMFDIEYFRKDPRPFFKFAKEIYPGQFQPSLCHKFIALSDKEGKLLRNYTQNIDTLEQVAGIQRILQCHGSFATASCLICKYKVDCEAVRGDIFNQVVPRCPRCPADEPLAIMKPEIVFFGENLPEQFHRAMKYDKDEVDLLIVIGSSLKVRPVALIPSSIPHEVPQILINREPLPHLHFDVELLGDCDVIINELCHRLGGEYAKLCCNPVKLSEITEKPPRPQKELVHLSELPPTPLHISEDSSSPERTVPQDSSVIATLVDQATNNNVNDLEVSESSCVEEKPQEVQTSRNVENINVENPDFKAVGSSTADKNERTSVAETVRKCWPNRLAKEQISKRLEGNQYLFVPPNRYIFHGAEVYSDSEDDVLSSSSCGSNSDSGTCQSPSLEEPLEDESEIEEFYNGLEDDTERPECAGGSGFGADGGDQEVVNEAIATRQELTDVNYPSDKS | – | completely abolished the activity |
| recombinant mSir2α mutant I262A (protein) MADEVALALQAAGSPSAAAAMEAASQPADEPLRKRPRRDGPGLGRSPGEPSAAVAPAAAGCEAASAAAPAALWREAAGAAASAEREAPATAVAGDGDNGSGLRREPRAADDFDDDEGEEEDEAAAAAAAAAIGYRDNLLLTDGLLTNGFHSCESDDDDRTSHASSSDWTPRPRIGPYTFVQQHLMIGTDPRTILKDLLPETIPPPELDDMTLWQIVINILSEPPKRKKRKDINTIEDAVKLLQECKKIIVLTGAGVSVSCGAPDFRSRDGIYARLAVDFPDLPDPQAMFDIEYFRKDPRPFFKFAKEIYPGQFQPSLCHKFIALSDKEGKLLRNYTQNIDTLEQVAGIQRILQCHGSFATASCLICKYKVDCEAVRGDIFNQVVPRCPRCPADEPLAIMKPEIVFFGENLPEQFHRAMKYDKDEVDLLIVIGSSLKVRPVALIPSSIPHEVPQILINREPLPHLHFDVELLGDCDVIINELCHRLGGEYAKLCCNPVKLSEITEKPPRPQKELVHLSELPPTPLHISEDSSSPERTVPQDSSVIATLVDQATNNNVNDLEVSESSCVEEKPQEVQTSRNVENINVENPDFKAVGSSTADKNERTSVAETVRKCWPNRLAKEQISKRLEGNQYLFVPPNRYIFHGAEVYSDSEDDVLSSSSCGSNSDSGTCQSPSLEEPLEDESEIEEFYNGLEDDTERPECAGGSGFGADGGDQEVVNEAIATRQELTDVNYPSDKS | – | completely abolished the activity |
| recombinant mSir2α mutant S257A (protein) MADEVALALQAAGSPSAAAAMEAASQPADEPLRKRPRRDGPGLGRSPGEPSAAVAPAAAGCEAASAAAPAALWREAAGAAASAEREAPATAVAGDGDNGSGLRREPRAADDFDDDEGEEEDEAAAAAAAAAIGYRDNLLLTDGLLTNGFHSCESDDDDRTSHASSSDWTPRPRIGPYTFVQQHLMIGTDPRTILKDLLPETIPPPELDDMTLWQIVINILSEPPKRKKRKDINTIEDAVKLLQECKKIIVLTGAGVAVSCGIPDFRSRDGIYARLAVDFPDLPDPQAMFDIEYFRKDPRPFFKFAKEIYPGQFQPSLCHKFIALSDKEGKLLRNYTQNIDTLEQVAGIQRILQCHGSFATASCLICKYKVDCEAVRGDIFNQVVPRCPRCPADEPLAIMKPEIVFFGENLPEQFHRAMKYDKDEVDLLIVIGSSLKVRPVALIPSSIPHEVPQILINREPLPHLHFDVELLGDCDVIINELCHRLGGEYAKLCCNPVKLSEITEKPPRPQKELVHLSELPPTPLHISEDSSSPERTVPQDSSVIATLVDQATNNNVNDLEVSESSCVEEKPQEVQTSRNVENINVENPDFKAVGSSTADKNERTSVAETVRKCWPNRLAKEQISKRLEGNQYLFVPPNRYIFHGAEVYSDSEDDVLSSSSCGSNSDSGTCQSPSLEEPLEDESEIEEFYNGLEDDTERPECAGGSGFGADGGDQEVVNEAIATRQELTDVNYPSDKS | – | completely abolished the activity |
